# Data: patent US20240376208A1 (AFFIMED, published 2024)
# What was measured:
# [1] = molecular target: CD38 on primary human NK cells (human, UniProt P28907 1-300); assay: cell-based or functional assay
# [2] = molecular target: T1, biotinylated dimeric CD16A antigen (human, UniProt P08637 17-208, limits assumed, biotinylated (site not stated)); assay: ELISA, biotinylated dimeric CD16A titrated on coated construct
# T1 construct: Soluble antigen; also called soluble CD16A antigen
# Description: (§1) For the capturing approach, 96-well ELISA plates (Immuno Maxisorp, Nunc) were coated overnight at 4° C. with His-tagged human EGFR or BCMA extracellular domain at concentrations of 3.0 or 0.4 μg/mL, respectively. After blocking with 3% (w/v) skimmed milk powder dissolved in phosphate buffered saline (PBS), antigen coated plates were used for capturing of different multivalent bispecific engagers at concentrations of 3-5 μg/mL in PBS containing 0.3% (w/v) skimmed milk powder. After washing three times with 300 μL per well of PBS containing 0.1% (v/v) Tween 20, plates were incubated with serial dilutions of biotinylated dimeric or monomeric CD16A antigen in PBS containing 0.3% (w/v) skimmed milk powder for 1.5 h at room temperature. After washing, plates were incubated with the detection conjugate Streptavidin HRP, 1:10,000 diluted in PBS containing 0.3% (w/v) skimmed milk powder for 1 h followed by washing and incubation with tetramethylbenzidine substrate (Seramun) for 1-2 min. Reaction was stopped by addition of 0.5 M H₂SO₄ (100 μL/well). Absorbance was measured at 450 nm using a multiwell plate reader, plotted and EC₅₀ values were determined by fitting a nonlinear regression model to sigmoidal dose-response curves (four parameters logistic fit) using GraphPad Prism software.
# (§2) Concentration dependent binding of antibody constructs to coated recombinant CD16A antigen, or of soluble monomeric or dimeric CD16 antigen variants to coated or target antigen captured antibody constructs was analyzed in ELISA. Half maximal binding concentrations (EC₅₀) were determined by fitting a nonlinear regression model to sigmoidal dose-response curves (four parameters logistic fit) using GraphPad Prism software.
# [3] = molecular target: T2, biotinylated monomeric CD16A antigen (human, UniProt P08637 17-208, limits assumed, biotinylated (site not stated)); assay: ELISA, biotinylated monomeric CD16A titrated on construct captured by coated His-tagged human EGFR extracellular domain
# T2 construct: Soluble antigen; also called soluble CD16A antigen
# T2 sequence (P08637 17-208 limits assumed): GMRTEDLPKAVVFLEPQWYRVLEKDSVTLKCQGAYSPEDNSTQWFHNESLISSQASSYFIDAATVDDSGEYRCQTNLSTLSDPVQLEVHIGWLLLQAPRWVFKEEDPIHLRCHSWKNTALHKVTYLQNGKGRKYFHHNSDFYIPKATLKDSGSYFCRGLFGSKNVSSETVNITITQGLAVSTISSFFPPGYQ
# Description: as §1, §2
# [4] = molecular target: recombinant CD16A 158V fused to monomeric human Fc (human, UniProt P08637 17-208); assay: ELISA, construct titrated on coated CD16A 158V fused to monomeric human Fc
# Chain of recombinant CD16A 158V fused to monomeric human Fc (P08637 17-208 F176V): as the sequence (P08637 17-208 limits assumed) above, with F160V counted along it
# [5] = molecular target: T1, biotinylated dimeric CD16A antigen; assay: ELISA, biotinylated dimeric CD16A titrated on construct captured by coated His-tagged human EGFR extracellular domain
# Description: as §1, §2
# [6] = molecular target: T3, His-tagged human EGFR extracellular domain (human, UniProt P00533 25-645); assay: ELISA, construct captured on coated His-tagged human EGFR extracellular domain
# T3 construct: extracellular domain; Coated at 3.0 ug/mL to capture the EGFR-targeting constructs; not shown: His tag
# [7] = molecular target: T4, recombinant CD16A 158F fused to monomeric human Fc (human, UniProt P08637 17-208); assay: ELISA, construct titrated on coated CD16A 158F fused to monomeric human Fc
# T4 construct: also called recombinant CD16 antigen variant; not shown: monomeric human Fc
# T4 sequence (P08637 17-208): as the sequence (P08637 17-208 limits assumed) above
# Description: To assess binding of EGFR/CD16 or BCMA/CD16 antibodies to coated antigen in ELISA, 96-well ELISA plates (Immuno Maxisorp, Nunc) were coated overnight at 4° C. with recombinant CD16 antigen variants fused to monomeric human Fc at a concentration of 1.5 μg/mL in 100 mM carbonate-bicarbonate buffer. After blocking with 3% (w/v) skimmed milk powder dissolved in phosphate buffered saline (PBS) serial dilutions of bispecific antibody constructs were incubated on the antigen coated plates for 1.5 h at room temperature. […] After washing, plates were incubated with tetramethylbenzidine substrate (Seramun) for 1-2 min. Reaction was stopped by addition of 0.5 M H₂SO₄ (100 μL/well). Absorbance was measured at 450 nm using a multiwell plate reader, plotted and EC₅₀ values were determined by fitting a nonlinear regression model to sigmoidal dose-response curves (four parameters logistic fit) using GraphPad Prism software.
# as §2
# [8] = molecular target: T2, biotinylated monomeric CD16A antigen; assay: ELISA, biotinylated monomeric CD16A titrated on coated construct
# Description: as §1, §2
# [9] = molecular target: T1, biotinylated dimeric CD16A antigen; assay: ELISA, biotinylated dimeric CD16A titrated on construct captured by coated His-tagged human BCMA extracellular domain
# Description: as §1, §2
# [10] = molecular target: T5, BCMA on MM.1S target cells (UniProt Q02223 1-184, limits assumed); assay: cell-based or functional assay
# T5 sequence (looked up): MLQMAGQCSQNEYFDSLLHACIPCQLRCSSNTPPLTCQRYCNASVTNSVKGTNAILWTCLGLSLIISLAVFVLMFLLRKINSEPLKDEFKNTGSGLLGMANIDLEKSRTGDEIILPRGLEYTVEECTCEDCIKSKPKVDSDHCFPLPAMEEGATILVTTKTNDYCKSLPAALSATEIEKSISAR
# [11] = molecular target: T2, biotinylated monomeric CD16A antigen; assay: ELISA, biotinylated monomeric CD16A titrated on construct captured by coated His-tagged human BCMA extracellular domain
# Description: as §1, §2
# T1 sequence (P08637 17-208 limits assumed): as the sequence (P08637 17-208 limits assumed) above
Binder,"EC50 [pM], 4 h calcein-release NK cell fratricide assay, E:T 1:1 [1]","Emax [%], 4 h calcein-release NK cell fratricide assay, E:T 1:1 [1]",EC50 [2],EC50 [3],EC50 [4],EC50 [5],binding result [6],EC50 [7],EC50 [8],EC50 [9],"EC50 [pM], 4 h calcein-release cytotoxicity on BCMA+ MM.1S target cells, NK cells E:T 5:1 [10]","Emax [%], 4 h calcein-release cytotoxicity on BCMA+ MM.1S target cells, NK cells E:T 5:1 [10]",EC50 [11]
"IgAb_51 (antibody, V domains shown) VH: EVQLLESGGGLVQPGGSLRLSCAVSGFTFNSFAMSWVRQAPGKGLEWVSAISGSGGGTYYADSVKGRFTISRDNSKNTLYLQMNSLRAEDTAVYFCAKDKILWFGEPVFDYWGQGTLVTVSS VL: not shown",66.5 pM,68.6%,,,,,,,,,,,
scFv-IgAb_47 (bispecific antibody) heavy: QVQLVQSGAEVKKPGESLKVSCKASGYTFTSYYMHWVRQAPGQGLEWMGAIEPMYGSTSYAQKFQGRVTMTRDTSTSTVYMELSSLRSEDTAVYYCARGSAYYYDFADYWGQGTLVTVSSASTKGPSVFPLAPSSKSTSGGTAALGCLVKDYFPEPVTVSWNSGALTSGVHTFPAVLQSSGLYSLSSVVTVPSSSLGTQTYICNVNHKPSNTKVDKKVEPKSCDKTHTCPPCPAPEFEGGPSVFLFPPKPKDTLMISRTPEVTCVVVAVSHEDPEVKFNWYVDGVEVHNAKTKPREEQYNSTYRVVSVLTVLHQDWLNGKEYKCKVSNKALPAPIEKTISKAKGQPREPQVYTLPPSREEMTKNQVSLTCLVKGFYPSDIAVEWESNGQPENNYKTTPPVLDSDGSFFLYSKLTVDKSRWQQGNVFSCSVMHEALHNHYTQKSLSLSPGGGGGSGGGGSQVQLQESGPGLVKPSETLSLTCTVSGGSVSSGSYYWSWIRQPPGKGLEWIGYIYYSGSTNYNPSLKSRVTISVDTSKNQFSLKLSSVTAADTAVYYCARNPISIPAFDIWGQGTMVTVSSGGSGGSGGSGGSGGSGGSQPVLTQPPSVSVAPGKTARITCGGNNIGSKSVHWYQQKPGQAPVLVIYYDSDRPSGIPERFSGSNSGNTATLTISRVEAGDEADYYCQVWDTSSDHVLFGGGTKLTVL light: SYVLTQPSSVSVAPGQTATISCGGHNIGSKNVHWYQQRPGQSPVLVIYQDNKRPSGIPERFSGSNSGNTATLTISGTQAMDEADYYCQVWDNYSVLFGGGTKLTVLGQPKAAPSVTLFPPSSEELQANKATLVCLISDFYPGAVTVAWKADSSPVKAGVETTTPSKQSNNKYAASSYLSLTPEQWKSHRSYSCQVTHEGSTVEKTVAPTECS,,,0.89 nM,1.62 nM,0.16 nM,0.76 nM,binds,0.18 nM,2 nM,,,,
aBi-scDb-Fc_02 (bispecific antibody) chain 1: DKTHTCPPCPAPEFEGGPSVFLFPPKPKDTLMISRTPEVTCVVVAVSHEDPEVKFNWYVDGVEVHNAKTKPREEQYNSTYRVVSVLTVLHQDWLNGKEYKCKVSNKALPAPIEKTISKAKGQPREPQVYTLPPSREEMTKNQVSLTCLVKGFYPSDIAVEWESNGQPENNYKTTPPVLDSDGSFFLTSKLTVDKSRWQQGNVFSCSVMHEALHNHYTQKSLSLSPGGGGGSGGGGSSYVLTQPSSVSVAPGQTATISCGGHNIGSKNVHWYQQRPGQSPVLVIYQDNKRPSGIPERFSGSNSGNTATLTISGTQAMDEADYYCQVWDNYSVLFGGGTKLTVLGGSGGSQVQLVQSGAEVKKPGESLKVSCKASGYTFTSYYMHWVRQAPGQGLEWMGAIEPMYGSTSYAQKFQGRVTMTRDTSTSTVYMELSSLRSEDTAVYYCARGSAYYYDFADYWGQGTLVTVSSGGSGGSGGSGGSGGSGGSSYVLTQPSSVSVAPGQTATISCGGHNIGSKNVHWYQQRPGQSPVLVIYQDNKRPSGIPERFSGSNSGNTATLTISGTQAMDEADYYCQVWDNYSVLFGGGTKLTVLGGSGGSQVQLVQSGAEVKKPGESLKVSCKASGYTFTSYYMHWVRQAPGQGLEWMGAIEPMYGSTSYAQKFQGRVTMTRDTSTSTVYMELSSLRSEDTAVYYCARGSAYYYDFADYWGQGTLVTVSSAAAGSHHHHHH chain 2: EVQLLESGGGLVQPGGSLRLSCAASGFTFSNYDMAWVRQAPGKGLEWVSSISTRGDITSYRDSVKGRFTISRDNSKNTLYLQMNSLRAEDTAVYYCARQDYYTDYMGFAYWGQGTLVTVSSGGGGSGGGGSGGGGSAIQMTQSPSSLSASVGDRVTITCRASEDIYNGLAWYQQKPGKAPKLLIYGASSLQDGVPSRFSGSGSGTEFTLTISSLQPEDEATYYCAGPHKYPLTFGGGTKVEIKDKTHTCPPCPAPEFEGGPSVFLFPPKPKDTLMISRTPEVTCVVVAVSHEDPEVKFNWYVDGVEVHNAKTKPREEQYNSTYRVVSVLTVLHQDWLNGKEYKCKVSNKALPAPIEKTISKAKGQPREPQVYTLPPSREEMTKNQVSLYCLVKGFYPSDIAVEWESNGQPENNYKTTPPVLDSDGSFFLYSKLTVDKSRWQQGNVFSCSVMHEALHNHYTQKSLSLSPGGGGGSGGGGSSYVLTQPSSVSVAPGQTATISCGGHNIGSKNVHWYQQRPGQSPVLVIYQDNKRPSGIPERFSGSNSGNTATLTISGTQAMDEADYYCQVWDNYSVLFGGGTKLTVLGGSGGSQVQLVQSGAEVKKPGESLKVSCKASGYTFTSYYMHWVRQAPGQGLEWMGAIEPMYGSTSYAQKFQGRVTMTRDTSTSTVYMELSSLRSEDTAVYYCARGSAYYYDFADYWGQGTLVTVSSGGSGGSGGSGGSGGSGGSSYVLTQPSSVSVAPGQTATISCGGHNIGSKNVHWYQQRPGQSPVLVIYQDNKRPSGIPERFSGSNSGNTATLTISGTQAMDEADYYCQVWDNYSVLFGGGTKLTVLGGSGGSQVQLVQSGAEVKKPGESLKVSCKASGYTFTSYYMHWVRQAPGQGLEWMGAIEPMYGSTSYAQKFQGRVTMTRDTSTSTVYMELSSLRSEDTAVYYCARGSAYYYDFADYWGQGTLVTVSSAAAGSHHHHHH,,,1 nM,,0.34 nM,,,0.45 nM,3.84 nM,1.25 nM,2.3 pM,62.8%,2.36 nM
